Reference: paper PMC8524320
No end group written: not given here. *: point of attachment. TAMRA = 5-carboxytetramethylrhodamine, CN(C)c1ccc2c(-c3ccc(C(=O)*)cc3C(=O)[O-])c3ccc(N(C)C)cc3[o+]c2c1

What was measured:
[1] = target: HLA-A*68:02^S88R on the surface of HeLaM-HLA-ABC^KO cells (human); assay: flow cytometry on cells; competition: surface MHC-I pre-loaded with 10 nM fluorescent peptide in the presence of TAPBPR (100 nM for HLA-A*68:02 WT, 10 nM for N86Q and S88R), washed, then 0, 100 nM or 1000 nM recombinant TAPBPR for 30 min; loss of bound peptide against no TAPBPR
[2] = target: HLA-A*68:02^WT on the surface of HeLaM-HLA-ABC^KO cells (human); assay: as above
[3] = target: HLA-A*68:02^N86Q on the surface of HeLaM-HLA-ABC^KO cells (human); assay: as above
[4] = target: HLA-A*68:02^S88R on the surface of HeLaM-HLA-ABC^KO cells (human); assay: flow cytometry on cells; competition: cells treated with 1 μM soluble TAPBPR for 30 min at 37 °C, washed, then 0, 10 nM or 100 nM high-affinity peptide for 15 min (methods: 30 min); loss of bound TAPBPR (PeTe-4) against no peptide
[5] = target: HLA-A*68:02^WT on the surface of HeLaM-HLA-ABC^KO cells (human); assay: as above
[6] = target: HLA-A*68:02^N86Q on the surface of HeLaM-HLA-ABC^KO cells (human); assay: as above

Molecule: recombinant soluble TAPBPR^WT (lumenal domains, C-terminal His6) (from UniProt Q9BX59 19-405) (domain or fragment)
- % loss of pre-loaded YVVPFVAK*V in the presence of TAPBPR (up to) [1]: 50%
- % of pre-loaded ETVSK*QSNV dissociated by 100 nM TAPBPR [1]: 75%
- % of pre-loaded ETVSK*QSNV dissociated by 1 μM TAPBPR [1]: > 90%
- % of pre-loaded ETVSK*QSNV dissociated by 1 μM TAPBPR [2]: 30%
- % loss of pre-loaded YVVPFVAK*V in the presence of TAPBPR (up to) [3]: 30%
- % of pre-loaded ETVSK*QSNV dissociated by 100 nM TAPBPR [3]: 50%
- % of pre-loaded ETVSK*QSNV dissociated by 1 μM TAPBPR [3]: 85%

Molecule: ETVSK(TAMRA)QSNV [ETVSK*QSNV (TAMRA-labelled peptide specific for HLA-A*68:02)]
- % of bound TAPBPR dissociated by the peptide [4]: 60%
- % of bound TAPBPR dissociated by the peptide [5]: 85%
- % of bound TAPBPR dissociated by the peptide [6]: 70%

Molecule: YVVPFVAK(TAMRA)V [YVVPFVAK*V (TAMRA-labelled peptide specific for HLA-A*68:02)]
- % of bound TAPBPR displaced by the peptide [4]: 83%
- % of bound TAPBPR displaced by the peptide [5]: 92%
- % of bound TAPBPR displaced by the peptide [6]: 86%
